What was measured:
[1] = molecular target: K10N/V75I/Q111D human 39MIR triple mutant, IChBD fusion (human); test: Western blot of peptide-IChBD fusion (FIG. 7)
[2] = molecular target: K10N/D70A/V75I/Q111D human 39MIR quadruple mutant, IChBD fusion (human); test: Western blot of peptide-IChBD fusion (FIG. 7)
[3] = molecular target: K10N/V75I human 39MIR double mutant, IChBD fusion (human); test: Western blot of peptide-IChBD fusion (FIG. 7)
[4] = molecular target: Torpedo 39MIR peptide-intein-chitin-binding domain (IChBD) fusion protein (Torpedo); test: Western blot of peptide-IChBD fusion (FIG. 7)
Chain of Torpedo 39MIR peptide-intein-chitin-binding domain (IChBD) fusion protein (Torpedo) (chain, as listed by the source): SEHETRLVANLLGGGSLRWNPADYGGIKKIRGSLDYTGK

[5] = molecular target: K10N/D70A human 39MIR double mutant, IChBD fusion (human); test: Western blot of peptide-IChBD fusion (FIG. 7)
Chain of K10N/D70A human 39MIR double mutant, IChBD fusion (human) (chain, as listed by the source K10N D70A K10N D70A): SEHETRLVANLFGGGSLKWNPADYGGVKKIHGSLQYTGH

[6] = molecular target: K10N/Q111D human 39MIR double mutant, IChBD fusion (human); test: Western blot of peptide-IChBD fusion (FIG. 7)
Chain of K10N/Q111D human 39MIR double mutant, IChBD fusion (human) (chain, as listed by the source K10N Q111D K10N Q111D): as the sequence (chain, as listed by the source K10N D70A K10N D70A) above, with A22D, Q35D counted along it

[7] = molecular target: V75I/Q111D human 39MIR double mutant, IChBD fusion (human); test: Western blot of peptide-IChBD fusion (FIG. 7)
Chain of V75I/Q111D human 39MIR double mutant, IChBD fusion (human) (chain, as listed by the source V75I Q111D V75I Q111D): as the sequence (chain, as listed by the source K10N D70A K10N D70A) above, with N10K, A22D, V27I, Q35D counted along it

[8] = molecular target: Torpedo 39MIR single mutant A70D, IChBD fusion (Torpedo); test: Western blot of peptide-IChBD fusion (FIG. 5)
Chain of Torpedo 39MIR single mutant A70D, IChBD fusion (Torpedo) (chain, as listed by the source A70D A70D): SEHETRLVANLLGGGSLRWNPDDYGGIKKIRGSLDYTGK

[9] = molecular target: Torpedo 39MIR single mutant L12F, IChBD fusion (Torpedo); test: Western blot of peptide-IChBD fusion (FIG. 5)
Chain of Torpedo 39MIR single mutant L12F, IChBD fusion (Torpedo) (chain, as listed by the source L12F L12F): as the sequence (chain, as listed by the source A70D A70D) above, with L12F, D22A counted along it

[10] = molecular target: Torpedo 39MIR single mutant R66K, IChBD fusion (Torpedo); test: Western blot of peptide-IChBD fusion (FIG. 5)
Chain of Torpedo 39MIR single mutant R66K, IChBD fusion (Torpedo) (chain, as listed by the source R66K R66K): as the sequence (chain, as listed by the source A70D A70D) above, with R18K, D22A counted along it

[11] = molecular target: Torpedo 39MIR single mutant R79H, IChBD fusion (Torpedo); test: Western blot of peptide-IChBD fusion (FIG. 5)
Chain of Torpedo 39MIR single mutant R79H, IChBD fusion (Torpedo) (chain, as listed by the source R79H R79H): as the sequence (chain, as listed by the source A70D A70D) above, with D22A, R31H counted along it

[12] = molecular target: Torpedo 39MIR peptide-intein-chitin-binding domain (IChBD) fusion protein (Torpedo); test: Western blot of peptide-IChBD fusion (FIG. 5)
[13] = molecular target: Torpedo 39MIR single mutant N10K, IChBD fusion (Torpedo); test: Western blot of peptide-IChBD fusion (FIG. 5)
Chain of Torpedo 39MIR single mutant N10K, IChBD fusion (Torpedo) (chain, as listed by the source N10K N10K): as the sequence (chain, as listed by the source A70D A70D) above, with N10K, D22A counted along it

[14] = molecular target: V75I human 39MIR mutant, IChBD fusion (human); test: Western blot of peptide-IChBD fusion (Table 3)
Chain of V75I human 39MIR mutant, IChBD fusion (human) (chain, as listed by the source V75I V75I): as the sequence (chain, as listed by the source K10N D70A K10N D70A) above, with N10K, A22D, V27I counted along it

[15] = molecular target: Q111D human 39MIR mutant, IChBD fusion (human); test: Western blot of peptide-IChBD fusion (Table 3)
Chain of Q111D human 39MIR mutant, IChBD fusion (human) (chain, as listed by the source Q111D Q111D): as the sequence (chain, as listed by the source K10N D70A K10N D70A) above, with N10K, A22D, Q35D counted along it

[16] = molecular target: K10N human 39MIR mutant, IChBD fusion (human); test: Western blot of peptide-IChBD fusion (Table 3)
Chain of K10N human 39MIR mutant, IChBD fusion (human) (chain, as listed by the source K10N K10N): as the sequence (chain, as listed by the source K10N D70A K10N D70A) above, with A22D counted along it

[17] = molecular target: Torpedo 39MIR peptide-intein-chitin-binding domain (IChBD) fusion protein (Torpedo); test: Western blot of peptide-IChBD fusion (Table 3)
[18] = molecular target: Human 39MIR peptide-intein-chitin-binding domain (IChBD) fusion protein (human); test: Western blot of peptide-IChBD fusion (FIG. 7)
Chain of Human 39MIR peptide-intein-chitin-binding domain (IChBD) fusion protein (human) (chain, as listed by the source): as the sequence (chain, as listed by the source K10N D70A K10N D70A) above, with N10K, A22D counted along it

[19] = molecular target: Torpedo 39MIR peptide-intein-chitin-binding domain (IChBD) fusion protein (Torpedo); test: Western blot (FIG. 3)
[20] = molecular target: Torpedo 39MIR single mutant K115H, IChBD fusion (Torpedo); test: Western blot of peptide-IChBD fusion (FIG. 5)
Chain of Torpedo 39MIR single mutant K115H, IChBD fusion (Torpedo) (chain, as listed by the source K115H K115H): as the sequence (chain, as listed by the source A70D A70D) above, with D22A, K39H counted along it

[21] = molecular target: Torpedo 39MIR single mutant I75V, IChBD fusion (Torpedo); test: Western blot of peptide-IChBD fusion (FIG. 5)
Chain of Torpedo 39MIR single mutant I75V, IChBD fusion (Torpedo) (chain, as listed by the source I75V I75V): as the sequence (chain, as listed by the source A70D A70D) above, with D22A, I27V counted along it

[22] = molecular target: Torpedo 39MIR single mutant D111Q, IChBD fusion (Torpedo); test: Western blot of peptide-IChBD fusion (FIG. 5)
Chain of Torpedo 39MIR single mutant D111Q, IChBD fusion (Torpedo) (chain, as listed by the source D111Q D111Q): as the sequence (chain, as listed by the source A70D A70D) above, with D22A, D35Q counted along it

[23] = molecular target: V75I human 39MIR mutant, IChBD fusion (human); test: Western blot
[24] = molecular target: Q111D human 39MIR mutant, IChBD fusion (human); test: Western blot
[25] = molecular target: K10N human 39MIR mutant, IChBD fusion (human); test: Western blot
[26] = molecular target: D70A human 39MIR mutant, IChBD fusion (human); test: Western blot of peptide-IChBD fusion (Table 3)
Chain of D70A human 39MIR mutant, IChBD fusion (human) (chain, as listed by the source D70A D70A): as the sequence (chain, as listed by the source K10N D70A K10N D70A) above, with N10K counted along it

[27] = molecular target: Human 39MIR peptide-intein-chitin-binding domain (IChBD) fusion protein (human); test: Western blot of peptide-IChBD fusion (Table 3)
[28] = molecular target: K10N/V75I/Q111D human 39MIR triple mutant, IChBD fusion (human); test: Western blot (FIG. 7)
[29] = molecular target: K10N/D70A/V75I/Q111D human 39MIR quadruple mutant, IChBD fusion (human); test: Western blot (FIG. 7)

Chain of K10N/D70A/V75I/Q111D human 39MIR quadruple mutant, IChBD fusion (human) (chain, as listed by the source K10N D70A V75I Q111D K10N D70A V75I Q111D): as the sequence (chain, as listed by the source K10N D70A K10N D70A) above, with V27I, Q35D counted along it
Chain of K10N/V75I/Q111D human 39MIR triple mutant, IChBD fusion (human) (chain, as listed by the source K10N V75I Q111D K10N V75I Q111D): as the sequence (chain, as listed by the source K10N D70A K10N D70A) above, with A22D, V27I, Q35D counted along it
Chain of K10N/V75I human 39MIR double mutant, IChBD fusion (human) (chain, as listed by the source K10N V75I K10N V75I): as the sequence (chain, as listed by the source K10N D70A K10N D70A) above, with A22D, V27I counted along it

fold-change in binding relative to Torpedo 39MIR [1] [fold]	fold-change in binding relative to Torpedo 39MIR [2] [fold]	fold-change in binding relative to Torpedo 39MIR [3] [fold]	fold-change in binding relative to Torpedo 39MIR [4] [fold]	fold-change in binding relative to Torpedo 39MIR [5] [fold]	fold-change in binding relative to Torpedo 39MIR [6] [fold]	fold-change in binding relative to Torpedo 39MIR [7] [fold]	fold-change in binding relative to Torpedo 39MIR [8] [fold]	fold-change in binding relative to Torpedo 39MIR [9] [fold]	fold-change in binding relative to Torpedo 39MIR [10] [fold]	fold-change in binding relative to Torpedo 39MIR [11] [fold]	fold-change in binding relative to Torpedo 39MIR [12] [fold]	fold-change in binding relative to Torpedo 39MIR [13] [fold]	fold-change in binding relative to Torpedo 39MIR [14] [fold]	fold-change in binding relative to Torpedo 39MIR [15] [fold]	fold-change in binding relative to Torpedo 39MIR [16] [fold]	fold-change in binding relative to Torpedo 39MIR [17] [fold]	fold-change in binding relative to Torpedo 39MIR [20] [fold]	fold-change in binding relative to Torpedo 39MIR [21] [fold]	fold-change in binding relative to Torpedo 39MIR [22] [fold]	Substance	further results
2.97	1.7	1.1	1	0.31	2.31	0.92	0.93	1.42	0.62	1.91	1	0.29	0.03	0.06	0.01	1	–	–	–	mAb 35 (antibody)	–
2.52	0.99	1.79	1	0.72	1.19	2.71	1.08	0.9	1.03	0.97	1	0.82	0.65	0.59	0.23	1	1.07	0.16	0.16	mAb 198 (antibody)	fold-change in binding relative to Torpedo 39MIR [18]: 0.09 fold; fold stronger binding than to the human MIR mimic [19]: 50 fold; fold improvement in binding compared to the human 39MIR [23]: 40 fold; fold improvement in binding compared to the human 39MIR [24]: 35.7 fold; fold improvement in binding compared to the human 39MIR [25]: 13 fold; fold-change in binding relative to Torpedo 39MIR [26]: 0.02 fold; fold-change in binding relative to Torpedo 39MIR [27]: 0.02 fold; fold improvement in binding compared to the human 39MIR [28]: 28 fold; fold improvement in binding compared to the human 39MIR [29]: 11 fold
2.46	0.99	1.25	1	0.16	1.07	3.34	0.2	1.1	1.55	1.65	1	0.03	–	–	–	1	0.4	0.06	0.07	mAb 132A (antibody)	–
